Reference: patent US20050064507

What was measured:
[1] = biological target: T1, kinesin 3C peptide LEKRGMLGKRPRRKSSRRKK (SEQ ID NO:133) (not fully specified)
T1 chain: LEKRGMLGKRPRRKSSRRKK

[2] = biological target: T2, EBNA1BP2 peptide KRPGKKGSNKRPGKR (SEQ ID NO:112) (not fully specified)
T2 chain: KRPGKKGSNKRPGKR

[3] = biological target: T3, ADD2 peptide KKKFRTPSFLKKSKK (SEQ ID NO:95) (not fully specified)
T3 chain: KKKFRTPSFLKKSKK

[4] = biological target: T4, MARCKS peptide KKKRFSFKKSFKLSGFSFKK (SEQ ID NO:111) (not fully specified)
T4 chain: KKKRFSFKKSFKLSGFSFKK

[5] = biological target: T5, gravin peptide KKFFTQGWAGWRKKTSFRKP (SEQ ID NO:154) (not fully specified)
T5 chain: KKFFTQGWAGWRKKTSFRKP

[6] = biological target: T6, NCF1 peptide GAPPRRSSIRNAH (SEQ ID NO:101) (not fully specified)
T6 chain: GAPPRRSSIRNAH

[7] = biological target: T7, Myt1 kinase peptide PPRTPGWHQLQPRRVSFRGE (SEQ ID NO:163) (not fully specified)
T7 chain: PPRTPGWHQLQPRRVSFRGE

[8] = biological target: T8, NIK peptide WKGKRRSKARKKRK (SEQ ID NO:131) (not fully specified)
T8 chain: WKGKRRSKARKKRK

[9] = biological target: T9, ankyrin R peptide DLIEGRKGAQIVKRASLKRG (SEQ ID NO:152) (not fully specified)
T9 chain: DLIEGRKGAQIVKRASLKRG

[10] = biological target: T10, PRKCA peptide RFARKGSLRQKNV (SEQ ID NO:85) (not fully specified)
T10 chain: RFARKGSLRQKNV

[11] = biological target: T11, beta adducin peptide PSKSPSKKKKKFRTPSFLKK (SEQ ID NO:137) (not fully specified)
T11 chain: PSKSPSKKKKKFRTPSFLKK

[12] = biological target: T12, MGC2941 peptide RPTPGDGEKRSRIKKSKKRK (SEQ ID NO:139) (not fully specified)
T12 chain: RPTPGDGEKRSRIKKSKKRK

[13] = biological target: T13, LIMK-2 peptide LRRRSLRRSNSISKSPGP (SEQ ID NO:121) (not fully specified)
T13 chain: LRRRSLRRSNSISKSPGP

[14] = biological target: T14, GABRB2 peptide QKKSRLRRRASQLKI (SEQ ID NO:84) (not fully specified)
T14 chain: QKKSRLRRRASQLKI

[15] = biological target: T15, PLD1 peptide KYKAFIRIPIPTRRHTFRRQ (SEQ ID NO:161) (not fully specified)
T15 chain: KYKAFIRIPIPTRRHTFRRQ

[16] = biological target: T16, PRKCM peptide VHYTSKDTLRKRHYWR (SEQ ID NO:91) (not fully specified)
T16 chain: VHYTSKDTLRKRHYWR

[17] = biological target: T17, AKAP12 peptide AGWRKKTSFRKPKED (SEQ ID NO:99) (not fully specified)
T17 chain: AGWRKKTSFRKPKED

[18] = biological target: T18, NMDAR1 peptide RAITSTLASSFKRRR (SEQ ID NO:122) (not fully specified)
T18 chain: RAITSTLASSFKRRR

[19] = biological target: T19, MARCKS peptide KKRFSFKKSFKLSGFSFKKN (SEQ ID NO:123) (not fully specified)
T19 chain: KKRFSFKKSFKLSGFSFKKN

[20] = biological target: T20, PSCDBP peptide LSSMFGTLPRKSRKGSVRKQ (SEQ ID NO:144) (not fully specified)
T20 chain: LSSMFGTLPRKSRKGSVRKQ

[21] = biological target: T21, FLJ20574 peptide GENVLKKSMKSRVKG (SEQ ID NO:113) (not fully specified)
T21 chain: GENVLKKSMKSRVKG

[22] = biological target: T22, DGKI peptide NRKKKRTSFKRKA (SEQ ID NO:79) (not fully specified)
T22 chain: NRKKKRTSFKRKA

[23] = biological target: T23, calcium channel, voltage-dependent, L type, alpha peptide RDIRQSPKRGFLRSASLGRR (SEQ ID NO:147) (not fully specified)
T23 chain: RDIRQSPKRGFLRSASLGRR

[24] = biological target: T24, CACNA1C peptide RGFLRSASLGRRASFHLE (SEQ ID NO:96) (not fully specified)
T24 chain: RGFLRSASLGRRASFHLE

[25] = biological target: T25, cytohesin-2 peptide VDPFYEMLAARKKRISVKKK (SEQ ID NO:150) (not fully specified)
T25 chain: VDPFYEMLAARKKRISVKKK

[26] = biological target: T26, ARHGAP4 peptide AGPLRKSSLKKGGRL (SEQ ID NO:98) (not fully specified)
T26 chain: AGPLRKSSLKKGGRL

[27] = biological target: T27, KCNH2 peptide RQRKRKLSFRRRTDKD (SEQ ID NO:86) (not fully specified)
T27 chain: RQRKRKLSFRRRTDKD

[28] = biological target: T28, ubiquitin specific protease 8 peptide RARRDSLKKIEIW (SEQ ID NO:136) (not fully specified)
T28 chain: RARRDSLKKIEIW

[29] = biological target: T29, … peptide KKPFKLSGLSFKRNRKE (SEQ ID NO:88) (not fully specified)
T29 chain: KKPFKLSGLSFKRNRKE

[30] = biological target: T30, NR4A3 peptide KEVVRTDSLKGRRGR (SEQ ID NO:109) (not fully specified)
T30 chain: KEVVRTDSLKGRRGR

[31] = biological target: T31, NEURL peptide ALRRPSLRREADD (SEQ ID NO:105) (not fully specified)
T31 chain: ALRRPSLRREADD

B1: PKC-zeta (protein)
chain: MPSRTGPKMEGSGGRVRLKAHYGGDIFITSVDAATTFEELCEEVRDMCRLHQQHPLTLKWVDSEGDPCTVSSQMELEEAFRLARQCRDEGLIIHVFPSTPEQPGLPCPGEDKSIYRRGARRWRKLYRANGHLFQAKRFNRRAYCGQCSERIWGLARQGYRCINCKLLVHKRCHGLVPLTCRKHMDSVMPSQEPPVDDKNEDADLPSEETDGIAYISSSRKHDSIKDDSEDLKPVIDGMDGIKISQGLGLQDFDLIRVIGRGSYAKVLLVRLKKNDQIYAMKVVKKELVHDDEDIDWVQTEKHVFEQASSNPFLVGLHSCFQTTSRLFLVIEYVNGGDLMFHMQRQRKLPEEHARFYAAEICIALNFLHERGIIYRDLKLDNVLLDADGHIKLTDYGMCKEGLGPGDTTSTFCGTPNYIAPEILRGEEYGFSVDWWALGVLMFEMMAGRSPFDIITDNPDMNTEDYLFQVILEKPIRIPRFLSVKASHVLKGFLNKDPKERLGCRPQTGFSDIKSHAFFRSIDWDLLEKKQALPPFQPQITDDYGLDNFDTQFTSEPVQLTPDDEDAIKRIDQSEFEGFEYINPLLLSTEESV
in vitro phosphorylation, 1 uM peptide (% of best substrate) [1]: 27 | in vitro phosphorylation, 10 uM peptide (% of best substrate) [1]: 30 | in vitro phosphorylation (% of best substrate) [2]: 1 | in vitro phosphorylation (% of best substrate) [3]: 5 | in vitro phosphorylation (% of best substrate) [4]: 9 | in vitro phosphorylation, 1 uM peptide (% of best substrate) [5]: 27 | in vitro phosphorylation, 10 uM peptide (% of best substrate) [5]: 23 | in vitro phosphorylation (% of best substrate) [6]: 3 | in vitro phosphorylation, 1 uM peptide (% of best substrate) [7]: 7 | in vitro phosphorylation, 10 uM peptide (% of best substrate) [7]: 26 | in vitro phosphorylation, 1 uM peptide (% of best substrate) [8]: 7 | in vitro phosphorylation, 10 uM peptide (% of best substrate) [8]: 6 | in vitro phosphorylation, 1 uM peptide (% of best substrate) [9]: 4 | in vitro phosphorylation, 10 uM peptide (% of best substrate) [9]: 9 | in vitro phosphorylation (% of best substrate) [10]: 56 | in vitro phosphorylation, 1 uM peptide (% of best substrate) [11]: 4 | in vitro phosphorylation, 10 uM peptide (% of best substrate) [11]: 5 | in vitro phosphorylation, 1 uM peptide (% of best substrate) [12]: 1 | in vitro phosphorylation, 10 uM peptide (% of best substrate) [12]: 1 | in vitro phosphorylation, 1 uM peptide (% of best substrate) [13]: 60 | in vitro phosphorylation, 10 uM peptide (% of best substrate) [13]: 56 | in vitro phosphorylation (% of best substrate) [14]: 19 | in vitro phosphorylation, 1 uM peptide (% of best substrate) [15]: 15 | in vitro phosphorylation, 10 uM peptide (% of best substrate) [15]: 9 | in vitro phosphorylation (% of best substrate) [16]: 12 | in vitro phosphorylation (% of best substrate) [17]: 10 | in vitro phosphorylation, 1 uM peptide (% of best substrate) [18]: 20 | in vitro phosphorylation, 10 uM peptide (% of best substrate) [18]: 17 | in vitro phosphorylation, 1 uM peptide (% of best substrate) [19]: 20 | in vitro phosphorylation, 10 uM peptide (% of best substrate) [19]: 20 | in vitro phosphorylation, 1 uM peptide (% of best substrate) [20]: 16 | in vitro phosphorylation, 10 uM peptide (% of best substrate) [20]: 54 | in vitro phosphorylation (% of best substrate) [21]: 1 | in vitro phosphorylation (% of best substrate) [22]: 18 | in vitro phosphorylation, 1 uM peptide (% of best substrate) [23]: 28 | in vitro phosphorylation, 10 uM peptide (% of best substrate) [23]: 34 | in vitro phosphorylation (% of best substrate) [24]: 22 | in vitro phosphorylation, 1 uM peptide (% of best substrate) [25]: 3 | in vitro phosphorylation, 10 uM peptide (% of best substrate) [25]: 6 | in vitro phosphorylation (% of best substrate) [26]: 4 | in vitro phosphorylation (% of best substrate) [27]: 28 | in vitro phosphorylation, 1 uM peptide (% of best substrate) [28]: 6 | in vitro phosphorylation, 10 uM peptide (% of best substrate) [28]: 9 | in vitro phosphorylation (% of best substrate) [29]: 4 | in vitro phosphorylation (% of best substrate) [30]: 2 | in vitro phosphorylation (% of best substrate) [31]: 4
